{"source": "patent US20240116997A1", "key": {"[1]": {"target": "IL-18 WT (native sequence, SEQ ID NO: 1) (human) (UniProt Q14116)", "sequence (Q14116 37-193)": "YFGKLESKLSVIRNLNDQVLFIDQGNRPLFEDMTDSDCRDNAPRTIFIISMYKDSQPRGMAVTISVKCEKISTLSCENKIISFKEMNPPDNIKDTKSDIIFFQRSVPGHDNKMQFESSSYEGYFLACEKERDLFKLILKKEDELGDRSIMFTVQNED"}, "[2]": {"target": "C086 (SEQ ID NO: 30; E6K, V11I, C38A, K53A, T63A, C76A, C127A) (human) (UniProt Q14116)", "sequence (Q14116 other isoform, or with tags, fused parts or gaps with the stated changes)": "as the sequence (Q14116 37-193) above, with E6K, V11I, C38A, K53A, T63A, C76A, C127A counted along it", "assay": "cell-based or functional assay"}, "[3]": {"target": "C144 (V11I, C38A, K53A, T63A, C76A, C127A) (human) (UniProt Q14116)", "sequence (Q14116 37-193 V47I/C74A/K89A/T99A/C112A/C163A)": "as the sequence (Q14116 37-193) above, with V11I, C38A, K53A, T63A, C76A, C127A counted along it", "assay": "cell-based or functional assay"}, "[4]": {"target": "C146 (SEQ ID NO: 79; V11I, C38A, M51G, K53A, C76A, C127A) (human) (UniProt Q14116)", "sequence (Q14116 37-193 V47I/C74A/M87G/K89A/C112A/C163A)": "as the sequence (Q14116 37-193) above, with V11I, C38A, M51G, K53A, C76A, C127A counted along it", "assay": "cell-based or functional assay"}, "[5]": {"target": "C150 (V11I, T34A, C38A, K53A, C76A, C127A) (human) (UniProt Q14116)", "sequence (Q14116 37-193 V47I/T70A/C74A/K89A/C112A/C163A)": "as the sequence (Q14116 37-193) above, with V11I, T34A, C38A, K53A, C76A, C127A counted along it", "assay": "cell-based or functional assay"}, "[6]": {"target": "C151 (V11I, D35A, C38A, K53A, C76A, C127A) (human) (UniProt Q14116)", "sequence (Q14116 37-193 V47I/D71A/C74A/K89A/C112A/C163A)": "as the sequence (Q14116 37-193) above, with V11I, D35A, C38A, K53A, C76A, C127A counted along it", "assay": "cell-based or functional assay"}, "[7]": {"target": "C152 (V11I, S36A, C38A, K53A, C76A, C127A) (human) (UniProt Q14116)", "sequence (Q14116 37-193 V47I/S72A/C74A/K89A/C112A/C163A)": "as the sequence (Q14116 37-193) above, with V11I, S36A, C38A, K53A, C76A, C127A counted along it", "assay": "cell-based or functional assay"}, "[8]": {"target": "C154 (V11I, E31A, D37A, C38A, K53A, C76A, C127A) (human) (UniProt Q14116)", "sequence (Q14116 37-193 V47I/E67A/D73A/C74A/K89A/C112A/C163A)": "as the sequence (Q14116 37-193) above, with V11I, E31A, D37A, C38A, K53A, C76A, C127A counted along it", "assay": "cell-based or functional assay"}, "[9]": {"target": "C155 (V11I, C38A, D40A, K53A, C76A, C127A) (human) (UniProt Q14116)", "sequence (Q14116 37-193 V47I/C74A/D76A/K89A/C112A/C163A)": "as the sequence (Q14116 37-193) above, with V11I, C38A, D40A, K53A, C76A, C127A counted along it", "assay": "cell-based or functional assay"}, "[10]": {"target": "C157 (V11I, C38A, K53A, C76A, C127A, D132A) (human) (UniProt Q14116)", "sequence (Q14116 37-193 V47I/C74A/K89A/C112A/C163A/D168A)": "as the sequence (Q14116 37-193) above, with V11I, C38A, K53A, C76A, C127A, D132A counted along it", "assay": "cell-based or functional assay"}, "[11]": {"target": "C160 (V11I, C38A, K53A, C76A, D110A, C127A) (human) (UniProt Q14116)", "sequence (Q14116 37-193 V47I/C74A/K89A/C112A/D146A/C163A)": "as the sequence (Q14116 37-193) above, with V11I, C38A, K53A, C76A, D110A, C127A counted along it", "assay": "cell-based or functional assay"}, "[12]": {"target": "C161 (K8R, V11I, C38A, C76A, Q103E, C127A) (human) (UniProt Q14116)", "sequence (Q14116 other isoform, or with tags, fused parts or gaps V11I C38A C76A Q103E C127A V11I C38A C76A Q103E C127A)": "as the sequence (Q14116 37-193) above, with K8R, V11I, C38A, C76A, Q103E, C127A counted along it", "assay": "cell-based or functional assay"}, "[13]": {"target": "C163 (V11I, C38A, C76A, Q103K, C127A) (human) (UniProt Q14116)", "sequence (Q14116 37-193 V47I/C74A/C112A/Q139K/C163A)": "as the sequence (Q14116 37-193) above, with V11I, C38A, C76A, Q103K, C127A counted along it", "assay": "cell-based or functional assay"}, "[14]": {"target": "C165 (V11I, C38A, S55R, C76A, C127A) (human) (UniProt Q14116)", "sequence (Q14116 37-193 V47I/C74A/S91R/C112A/C163A)": "as the sequence (Q14116 37-193) above, with V11I, C38A, S55R, C76A, C127A counted along it", "assay": "cell-based or functional assay"}, "[15]": {"target": "C167 (V11I, C38A, C76A, S105I, C127A) (human) (UniProt Q14116)", "sequence (Q14116 37-193 V47I/C74A/C112A/S141I/C163A)": "as the sequence (Q14116 37-193) above, with V11I, C38A, C76A, S105I, C127A counted along it", "assay": "cell-based or functional assay"}, "[16]": {"target": "C168 (V11I, C38A, C76A, S105K, C127A) (human) (UniProt Q14116)", "sequence (Q14116 37-193 V47I/C74A/C112A/S141K/C163A)": "as the sequence (Q14116 37-193) above, with V11I, C38A, C76A, S105K, C127A counted along it", "assay": "cell-based or functional assay"}, "[17]": {"target": "IL-18 polypeptide SEQ ID NO: 36 (K53A) (human) (UniProt Q14116)", "sequence (Q14116 37-193 K89A)": "as the sequence (Q14116 37-193) above, with K53A counted along it", "assay": "cell-based or functional assay"}, "[18]": {"target": "IL-18 polypeptide SEQ ID NO: 37 (S55A) (human) (UniProt Q14116)", "sequence (Q14116 37-193 S91A)": "as the sequence (Q14116 37-193) above, with S55A counted along it", "assay": "cell-based or functional assay"}, "[19]": {"target": "IL-18 polypeptide SEQ ID NO: 39 (E06K, K53A) (human) (UniProt Q14116)", "sequence (Q14116 37-193 E42K/K89A)": "as the sequence (Q14116 37-193) above, with E6K, K53A counted along it", "assay": "cell-based or functional assay"}, "[20]": {"target": "IL-18 polypeptide SEQ ID NO: 4 (E6K, C38A, K53A, C68A, M86C) (human) (UniProt Q14116)", "sequence (Q14116 other isoform, or with tags, fused parts or gaps C38A K53A C68A M86C C38A K53A C68A M86C)": "as the sequence (Q14116 37-193) above, with E6K, C38A, K53A, C68A, M86C counted along it", "assay": "cell-based or functional assay"}, "[21]": {"target": "IL-18 polypeptide SEQ ID NO: 41 (K53A, S55A) (human) (UniProt Q14116)", "sequence (Q14116 37-193 K89A/S91A)": "as the sequence (Q14116 37-193) above, with K53A, S55A counted along it", "assay": "cell-based or functional assay"}, "[22]": {"target": "IL-18 polypeptide SEQ ID NO: 42 (E06K, K53A, S55A, T63A) (human) (UniProt Q14116)", "sequence (Q14116 37-193 E42K/K89A/S91A/T99A)": "as the sequence (Q14116 37-193) above, with E6K, K53A, S55A, T63A counted along it", "assay": "cell-based or functional assay"}, "[23]": {"target": "IL-18 polypeptide SEQ ID NO: 43 (E06K, K53A, S55A, Y01G) (human) (UniProt Q14116)", "sequence (Q14116 37-193 Y37G/E42K/K89A/S91A)": "as the sequence (Q14116 37-193) above, with Y1G, E6K, K53A, S55A counted along it", "assay": "cell-based or functional assay"}, "[24]": {"target": "IL-18 polypeptide SEQ ID NO: 46 (E06K, K53A, S55A, M51G) (human) (UniProt Q14116)", "sequence (Q14116 37-193 E42K/M87G/K89A/S91A)": "as the sequence (Q14116 37-193) above, with E6K, M51G, K53A, S55A counted along it", "assay": "cell-based or functional assay"}, "[25]": {"target": "IL-18 polypeptide SEQ ID NO: 47 (C38S, C68S, C76S, C127S) (human) (UniProt Q14116)", "sequence (Q14116 37-193 C74S/C104S/C112S/C163S)": "as the sequence (Q14116 37-193) above, with C38S, C68S, C76S, C127S counted along it", "assay": "cell-based or functional assay"}, "[26]": {"target": "IL-18 polypeptide SEQ ID NO: 48 (C38S, C68S, C76S, C127S, K70C) (human) (UniProt Q14116)", "sequence (Q14116 37-193 C74S/C104S/K106C/C112S/C163S)": "as the sequence (Q14116 37-193) above, with C38S, C68S, K70C, C76S, C127S counted along it", "assay": "cell-based or functional assay"}, "[27]": {"target": "IL-18 polypeptide SEQ ID NO: 5 (E6K, V11I, C38A, K53A, T63A, C68A, C76A, M86C, C127A) (human) (UniProt Q14116)", "sequence (Q14116 other isoform, or with tags, fused parts or gaps with the stated changes)": "as the sequence (Q14116 37-193) above, with E6K, V11I, C38A, K53A, T63A, C68A, C76A, M86C, C127A counted along it", "assay": "cell-based or functional assay"}, "[28]": {"target": "IL-18 polypeptide SEQ ID NO: 50 (E06K, K53A, T63A) (human) (UniProt Q14116)", "sequence (Q14116 37-193 E42K/K89A/T99A)": "as the sequence (Q14116 37-193) above, with E6K, K53A, T63A counted along it", "assay": "cell-based or functional assay"}, "[29]": {"target": "IL-18 polypeptide SEQ ID NO: 51 (T63A) (human) (UniProt Q14116)", "sequence (Q14116 37-193 T99A)": "as the sequence (Q14116 37-193) above, with T63A counted along it", "assay": "cell-based or functional assay"}, "[30]": {"target": "IL-18 polypeptide SEQ ID NO: 52 (E06K, T63A) (human) (UniProt Q14116)", "sequence (Q14116 37-193 E42K/T99A)": "as the sequence (Q14116 37-193) above, with E6K, T63A counted along it", "assay": "cell-based or functional assay"}, "[31]": {"target": "IL-18 polypeptide SEQ ID NO: 53 (K53A, T63A) (human) (UniProt Q14116)", "sequence (Q14116 37-193 K89A/T99A)": "as the sequence (Q14116 37-193) above, with K53A, T63A counted along it", "assay": "cell-based or functional assay"}, "[32]": {"target": "IL-18 polypeptide SEQ ID NO: 55 (K53A, T63A, C38S, C68S, C76S, C127S, K70C) (human) (UniProt Q14116)", "sequence (Q14116 37-193 C74S/K89A/T99A/C104S/K106C/C112S/C163S)": "as the sequence (Q14116 37-193) above, with C38S, K53A, T63A, C68S, K70C, C76S, C127S counted along it", "assay": "cell-based or functional assay"}, "[33]": {"target": "IL-18 polypeptide SEQ ID NO: 6 (E6K, V11I, C38A, K53A, T63A, C68A, C76A, D98C, C127A) (human) (UniProt Q14116)", "sequence (Q14116 other isoform, or with tags, fused parts or gaps with the stated changes)": "as the sequence (Q14116 37-193) above, with E6K, V11I, C38A, K53A, T63A, C68A, C76A, D98C, C127A counted along it", "assay": "cell-based or functional assay"}, "[34]": {"target": "IL-18 polypeptide SEQ ID NO: 60 (E6K, C38Q, K53A) (human) (UniProt Q14116)", "sequence (Q14116 other isoform, or with tags, fused parts or gaps C38Q K53A C38Q K53A)": "as the sequence (Q14116 37-193) above, with E6K, C38Q, K53A counted along it", "assay": "cell-based or functional assay"}, "[35]": {"target": "IL-18 polypeptide SEQ ID NO: 62 (E6K, C38A, K53A, C127A) (human) (UniProt Q14116)", "sequence (Q14116 other isoform, or with tags, fused parts or gaps C38A K53A C127A C38A K53A C127A)": "as the sequence (Q14116 37-193) above, with E6K, C38A, K53A, C127A counted along it", "assay": "cell-based or functional assay"}}}
{"substance": "Fc-fused human IL-18 binding protein isoform a (IL-18BPa) (from UniProt O95998 31-194) (Fc fusion)", "values": [{"measurement": "IC50 (read off the curve), inhibition of IFNg production by NK-92 cells", "setting": "[1]", "value": "1 to 2", "unit": "nM"}, {"measurement": "IC50 (nM), IL-18BPa inhibition of IFNγ induction, NK-92 cells", "setting": "[2]", "value": 284, "unit": "nM"}, {"measurement": "IC50 (nM), IL-18BPa inhibition of IFNγ induction, NK-92 cells", "setting": "[3]", "value": 10.2, "unit": "nM"}, {"measurement": "IC50 (nM), IL-18BPa inhibition of IFNγ induction, NK-92 cells", "setting": "[4]", "value": 47.6, "unit": "nM"}, {"measurement": "IC50 (nM), IL-18BPa inhibition of IFNγ induction, NK-92 cells", "setting": "[5]", "value": 3.62, "unit": "nM"}, {"measurement": "IC50 (nM), IL-18BPa inhibition of IFNγ induction, NK-92 cells", "setting": "[6]", "value": 7.85, "unit": "nM"}, {"measurement": "IC50 (nM), IL-18BPa inhibition of IFNγ induction, NK-92 cells", "setting": "[7]", "value": 2.22, "unit": "nM"}, {"measurement": "IC50 (nM), IL-18BPa inhibition of IFNγ induction, NK-92 cells", "setting": "[8]", "value": 3.23, "unit": "nM"}, {"measurement": "IC50 (nM), IL-18BPa inhibition of IFNγ induction, NK-92 cells", "setting": "[9]", "value": 0.681, "unit": "nM"}, {"measurement": "IC50 (nM), IL-18BPa inhibition of IFNγ induction, NK-92 cells", "setting": "[10]", "value": 3.98, "unit": "nM"}, {"measurement": "IC50 (nM), IL-18BPa inhibition of IFNγ induction, NK-92 cells", "setting": "[11]", "value": 1.07, "unit": "nM"}, {"measurement": "IC50 (nM), IL-18BPa inhibition of IFNγ induction, NK-92 cells", "setting": "[12]", "value": 7.29, "unit": "nM"}, {"measurement": "IC50 (nM), IL-18BPa inhibition of IFNγ induction, NK-92 cells", "setting": "[13]", "value": 0.456, "unit": "nM"}, {"measurement": "IC50 (nM), IL-18BPa inhibition of IFNγ induction, NK-92 cells", "setting": "[14]", "value": 0.44, "unit": "nM"}, {"measurement": "IC50 (nM), IL-18BPa inhibition of IFNγ induction, NK-92 cells", "setting": "[15]", "value": 0.176, "unit": "nM"}, {"measurement": "IC50 (nM), IL-18BPa inhibition of IFNγ induction, NK-92 cells", "setting": "[16]", "value": 5.85, "unit": "nM"}, {"measurement": "IC50 (nM), IL-18BPa inhibition of IFNγ induction, NK-92 cells", "setting": "[17]", "value": 27.3, "unit": "nM"}, {"measurement": "IC50 (nM), IL-18BPa inhibition of IFNγ induction, NK-92 cells", "setting": "[18]", "value": 4.46, "unit": "nM"}, {"measurement": "IC50 (nM), IL-18BPa inhibition of IFNγ induction, NK-92 cells", "setting": "[19]", "value": "> 703", "unit": "nM"}, {"measurement": "IC50 (nM), IL-18BPa inhibition of IFNγ induction, NK-92 cells", "setting": "[20]", "value": 396, "unit": "nM"}, {"measurement": "IC50 (nM), IL-18BPa inhibition of IFNγ induction, NK-92 cells", "setting": "[21]", "value": 37.3, "unit": "nM"}, {"measurement": "IC50 (nM), IL-18BPa inhibition of IFNγ induction, NK-92 cells", "setting": "[22]", "value": 1060, "unit": "nM"}, {"measurement": "IC50 (nM), IL-18BPa inhibition of IFNγ induction, NK-92 cells", "setting": "[23]", "value": 27.8, "unit": "nM"}, {"measurement": "IC50 (nM), IL-18BPa inhibition of IFNγ induction, NK-92 cells", "setting": "[24]", "value": 0.189, "unit": "nM"}, {"measurement": "IC50 (nM), IL-18BPa inhibition of IFNγ induction, NK-92 cells", "setting": "[25]", "value": 0.444, "unit": "nM"}, {"measurement": "IC50 (nM), IL-18BPa inhibition of IFNγ induction, NK-92 cells", "setting": "[26]", "value": 0.114, "unit": "nM"}, {"measurement": "IC50 (nM), IL-18BPa inhibition of IFNγ induction, NK-92 cells", "setting": "[27]", "value": 62.4, "unit": "nM"}, {"measurement": "IC50 (nM), IL-18BPa inhibition of IFNγ induction, NK-92 cells", "setting": "[28]", "value": "> 1000", "unit": "nM"}, {"measurement": "IC50 (nM), IL-18BPa inhibition of IFNγ induction, NK-92 cells", "setting": "[29]", "value": 0.239, "unit": "nM"}, {"measurement": "IC50 (nM), IL-18BPa inhibition of IFNγ induction, NK-92 cells", "setting": "[30]", "value": 47.1, "unit": "nM"}, {"measurement": "IC50 (nM), IL-18BPa inhibition of IFNγ induction, NK-92 cells", "setting": "[31]", "value": 18.2, "unit": "nM"}, {"measurement": "IC50 (nM), IL-18BPa inhibition of IFNγ induction, NK-92 cells", "setting": "[32]", "value": "> 1000", "unit": "nM"}, {"measurement": "IC50 (nM), IL-18BPa inhibition of IFNγ induction, NK-92 cells", "setting": "[33]", "value": 5.85, "unit": "nM"}, {"measurement": "IC50 (nM), IL-18BPa inhibition of IFNγ induction, NK-92 cells", "setting": "[34]", "value": 654, "unit": "nM"}, {"measurement": "IC50 (nM), IL-18BPa inhibition of IFNγ induction, NK-92 cells", "setting": "[35]", "value": 780, "unit": "nM"}]}
